Reference: publication PMC12775002, “Human O-GlcNAcase catalytic-stalk dimer anchors flexible histone binding domains” (Communications Chemistry, 2025)

B1: human O-GlcNAcase, long isoform (OGA-L), full length (enzyme, UniProt O60502 1-916, looked up)
chain: MVQKESQATLEERESELSSNPAASAGASLEPPAAPAPGEDNPAGAGGAAVAGAAGGARRFLCGVVEGFYGRPWVMEQRKELFRRLQKWELNTYLYAPKDDYKHRMFWREMYSVEEAEQLMTLISAAREYEIEFIYAISPGLDITFSNPKEVSTLKRKLDQVSQFGCRSFALLFDDIDHNMCAADKEVFSSFAHAQVSITNEIYQYLGEPETFLFCPTEYCGTFCYPNVSQSPYLRTVGEKLLPGIEVLWTGPKVVSKEIPVESIEEVSKIIKRAPVIWDNIHANDYDQKRLFLGPYKGRSTELIPRLKGVLTNPNCEFEANYVAIHTLATWYKSNMNGVRKDVVMTDSEDSTVSIQIKLENEGSDEDIETDVLYSPQMALKLALTEWLQEFGVPHQYSSRQVAHSGAKASVVDGTPLVAAPSLNATTVVTTVYQEPIMSQGAALSGEPTTLTKEEEKKQPDEEPMDMVVEKQEETDHKNDNQILSEIVEAKMAEELKPMDTDKESIAESKSPEMSMQEDCISDIAPMQTDEQTNKEQFVPGPNEKPLYTAEPVTLEDLQLLADLFYLPYEHGPKGAQMLREFQWLRANSSVVSVNCKGKDSEKIEEWRSRAAKFEEMCGLVMGMFTRLSNCANRTILYDMYSYVWDIKSIMSMVKSFVQWLGCRSHSSAQFLIGDQEPWAFRGGLAGEFQRLLPIDGANDLFFQPPPLTPTSKVYTIRPYFPKDEASVYKICREMYDDGVGLPFQSQPDLIGDKLVGGLLSLSLDYCFVLEDEDGICGYALGTVDVTPFIKKCKISWIPFMQEKYTKPNGDKELSEAEKIMLSFHEEQEVLPETFLANFPSLIKMDIHKKVTDPSVAKSMMACLLSSLKANGSRGAFCEVRPDDKRILEFYSKLGCFEIAKMEGFPKDVVILGRSL
notes: human O-GlcNAcase (OGA), long isoform OGA-L, 103 kDa, full length, codon optimized; also called hOGA; full-length recombinant OGA; source: E. coli TOP10 (pBAD), purified (Talon resin for the arrays; HisTrap and size-exclusion chromatography for cryo-EM); not shown: His6, N-terminal, kept
B2: histone H4 1-19 peptide, K8,12,16Ac (peptide, UniProt P62805 2-20, looked up)
peptide: SGRGKGGKGLGKGGAKRHR
modifications: acetyl-lysine at K8, K12 and K16
notes: histone H4 tail peptide, residues 1-19, on the array; also called H4 1-19 K^8,12,16Ac; H4K^8,12,16Ac; source: bought: Active Motif MODified Histone Peptide Array (peptide on the array)
B3: histone H4 1-19 peptide, K5,8,12,16Ac (peptide, UniProt P62805 2-20, looked up)
peptide: SGRGKGGKGLGKGGAKRHR
modifications: acetyl-lysine at K5, K8, K12 and K16
notes: histone H4 tail peptide, residues 1-19, on the array; also called H4 1-19 K^5,8,12,16Ac; H4K^5,8,12,16Ac; source: bought: Active Motif MODified Histone Peptide Array (peptide on the array)

Assays:
[1] = target: recombinant mononucleosome with the H3K36Me3 modification; assay: pull-down; 500 nM biotinylated mononucleosomes with 0, 25, 50, 100, 250 and 500 nM full-length OGA in OGA assay buffer, overnight 4 °C; captured on streptavidin magnetic beads; bound OGA-L quantified by immunoblot (anti-MGEA5); saturation plot and Scatchard analysis
[2] = target: recombinant mononucleosome with the H4K5,8,12,16Ac modification (UniProt P62805); assay: as above
[3] = target: the molecule itself; assay: cryo-EM structure; apo full-length OGA-L, about 0.5 ug/ul in 20 mM Tris, 150 mM NaCl; Titan Krios 300 kV
[4] = target: B1; assay: peptide or protein array; Active Motif MODified histone peptide array (384 modified histone peptides in duplicate, immobilised); 100 nM protein in 20 mM Tris pH 7.5, 1 mM DTT, 0.5 mg/mL BSA, RT 1 h; detected with anti-His6 antibody; 3 or more arrays; conditions: both partners purified

Kd [1]	Kd [2]	binding result [4]	Binder	binding result [3]
290 nM	220 nM		B1	binds
		binds	B2	
		binds	B3	
